Consider 1 molecule from patent publication US20240336656A1 (Bicycle, published 2024).

Starred links: 1 amine or outer side, 2 acyl side, 3 side chain; linkers in the order of their positions; H or OH if unused. Positions of bridges follow the written chain, without caps; N, C: chain ends. Non-standard residues stand in square brackets, D forms with d. Chains are numbered I, II in the order given. No end group written: not given here. PYA = 4-pentynoic acid on Lys NZ, clicked (triazole) to linker azide; TATA = O=C(CC[*:1])N1CN(C(=O)CC[*:2])CN(C(=O)CC[*:3])C1; 1Nal = N[C@@H](Cc1cccc2ccccc12)C(=O)O; Hyp = O=C(O)[C@@H]1C[C@@H](O)CN1; hArg = N=C(N)NCCCC[C@H](N)C(=O)O; tBuAla = CC(C)(C)C[C@H](N)C(=O)O; Nle = CCCC[C@H](N)C(=O)O

Test [1] concerns the target T1, CD137 (TNFRSF9) on cells (human, UniProt Q07011 24-255). The test can be described thus: cell-based or functional assay.
Test [2] concerns the target T1, CD137 (TNFRSF9) on cells. The test can be described thus: cell-based or functional assay. The source holds these as a separate data set.

T1 sequence (Q07011 24-255): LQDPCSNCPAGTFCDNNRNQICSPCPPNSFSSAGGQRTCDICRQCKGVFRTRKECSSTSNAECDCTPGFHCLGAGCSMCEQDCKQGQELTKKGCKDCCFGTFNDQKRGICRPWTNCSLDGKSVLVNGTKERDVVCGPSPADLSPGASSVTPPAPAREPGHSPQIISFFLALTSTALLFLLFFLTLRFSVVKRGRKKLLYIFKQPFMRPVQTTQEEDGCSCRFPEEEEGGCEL

B1: BCY11863 (peptide)
peptide 1: {N‑(acid-PEG3)‑N‑bis(PEG3-azide)}-CP[1Nal][dD]CM[hArg]DWSTP[Hyp]WC
peptide 2: Ac-C[tBuAla]PE[dK](PYA)PYCFADPY[Nle]CA
modifications: linker I:1-I:5-I:15, II:1-II:8-II:15 via TATA; also: heterotandem: one BCY8116 (chain 1) joined through N-(acid-PEG3)-N-bis(PEG3-azide) linker to two BCY8928 (chain 2), triazole via D-Lys(PYA)
For the molecule B1, in the test with CD137 (TNFRSF9) on cells [1], the “EC50 (nM) of fold induction over background, CD137 reporter assay, coculture with CT26#7 (mouse)” value came to 0.14 nM; the “EC50 (nM) of fold induction over background, CD137 reporter assay, coculture with HT1376 (human)” value was 0.52 nM; the “EC50 (nM) of fold induction over background, CD137 reporter assay, coculture with MC38#13 (mouse)” value was 0.31 nM; the “EC50 (nM) of fold induction over background, CD137 reporter assay, coculture with MDA-MB-468 (human)” value was found to be 0.23 nM. Besides, in the test with CD137 (TNFRSF9) on cells [1], the “EC50 (nM) of fold induction over background, CD137 reporter assay, coculture with NCI-H292 (human)” value amounted to 0.28 nM; the “EC50 (nM) of fold induction over background, CD137 reporter assay, coculture with NCI-H322 (human)” value is 0.33 nM; the “EC50 (nM) of fold induction over background, CD137 reporter assay, coculture with T47D (human)” value turned out to be 0.42 nM. In addition, in the test with CD137 (TNFRSF9) on cells [2], the “EC50 of IFNγ secretion, human PBMC co-culture with 4T1-D02 (mouse)” value was determined as 0.04 nM; the “EC50 of IFNγ secretion, human PBMC co-culture with H322 (human)” value is 0.85 nM; the “EC50 of IFNγ secretion, human PBMC co-culture with MC38 # 13 (mouse)” value amounted to 0.17 nM; the “EC50 of IFNγ secretion, human PBMC co-culture with T-47D (human)” value was determined as 0.08 nM. Also, in the test with CD137 (TNFRSF9) on cells [2], the “EC50 of IL-2 secretion, human PBMC co-culture with 4T1-D02 (mouse)” value was found to be 0.16 nM; the “EC50 of IL-2 secretion, human PBMC co-culture with H322 (human)” value worked out at 0.84 nM; the “EC50 of IL-2 secretion, human PBMC co-culture with HT1376 (human)” value worked out at 0.39 nM; the “EC50 of IL-2 secretion, human PBMC co-culture with MC38 # 13 (mouse)” value was found to be 0.25 nM. Further, in the test with CD137 (TNFRSF9) on cells [2], the “EC50 of IL-2 secretion, human PBMC co-culture with T-47D (human)” value was 0.2 nM.
